Measurements: US20220040297A1 (Chugai, published 2022)
Changes are numbered by the printed parent chain. Names and notes keep the numbering of the source.

Tests used:
CD3ε homodimer protein [1] = biological target: T1, CD3ε homodimer protein (human, UniProt P07766 23-126, limits assumed); test: SPR, CD3e immobilized
T1 construct: Whole entry named for the human CD3 epsilon chain
T1 sequence (P07766 23-126 limits assumed): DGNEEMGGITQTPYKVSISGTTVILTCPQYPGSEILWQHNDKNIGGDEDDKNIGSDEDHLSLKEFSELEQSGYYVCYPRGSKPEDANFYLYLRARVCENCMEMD
Method: Each one-amino acid altered form constructed, expressed, and purified in the paragraph (6-2) was evaluated using Biacore T200 (GE Healthcare Japan Corp.). An appropriate amount of CD3ε homodimer protein was immobilized onto Sensor chip CM4 (GE Healthcare Japan Corp.) by the amine coupling method. Then, the antibody having an appropriate concentration was injected thereto as an analyte and allowed to interact with the CD3ε homodimer protein on the sensor chip. Then, the sensor chip was regenerated by the injection of 10 mmol/L glycine-HCl (pH 1.5). The assay was conducted at 25° C., and HBS-EP+ (GE Healthcare Japan Corp.) was used as a running buffer. […] Each parameter was calculated using Biacore T200 Evaluation Software (GE Healthcare Japan Corp.).
Specifically, when the amount of the GLS3000-containing antibody bound was defined as X and the amount of the L chain one-amino acid altered form bound was defined as Y, a value of Z (ratio of amounts bound)=Y/X was used.

CD3ε homodimer protein [2] = biological target: T2, CD3ε homodimer protein (human, UniProt P07766 23-126, limits assumed); test: SPR (Biacore T200, 25°C); CD3ε homodimer immobilized on CM4, one-arm antibody as analyte
T2 construct: also called human CD3ε homodimer protein; CD3e homodimer
T2 sequence (P07766 23-126 limits assumed): as above

B1: GLS3000 G91S (antibody, IgG1, name in Kabat numbering, V domains shown)
VH: QVQLVESGGGVVQPGRSLRLSCAASGFTFSNAWMHWVRQAPGKGLEWVAQIKAKSNNYATYYAESVKGRFTISRDDSKNSLYLQMNSLKTEDTAVYYCRYVHYGAYYGVDAWGQGTTVTVSS
VL: DIVMTQSPLSLPVTPGEPASISCRSSQSLVHSNRNTYLHWYQQKPGQAPRLLIYKVSNRFSGVPDRFSGSGSGTDFTLKISRVEAEDVGVYYCGQSTQVPYTFGQGTKLEIK
B1 was tested, and the “KD ratio to GLS3000” value (CD3ε homodimer protein [1]) was 7210.

B2: GLS3000 H34E (antibody, IgG1, name in Kabat numbering, V domains shown)
VH: B1 VH
VL: B1 VL with H39E, S96G
With B2 the “KD ratio to GLS3000” value (CD3ε homodimer protein [1]) was 5.03.

B3: GLS3000 H34M (antibody, IgG1, name in Kabat numbering, V domains shown)
VH: B1 VH
VL: B1 VL with H39M, S96G
For B3, the “KD ratio to GLS3000” value (CD3ε homodimer protein [1]) was 3.36.

B4: GLS3000 H34R (antibody, IgG1, name in Kabat numbering, V domains shown)
VH: B1 VH
VL: B1 VL with H39R, S96G
In the case of B4, the “KD ratio to GLS3000” value (CD3ε homodimer protein [1]) is reported as 85800.

B5: GLS3000 L27bE (antibody, IgG1, name in Kabat numbering, V domains shown)
VH: B1 VH
VL: B1 VL with L29E, S96G
For B5, the “KD ratio to GLS3000” value (CD3ε homodimer protein [1]) was 26.8.

B6: GLS3000 L33P (antibody, IgG1, name in Kabat numbering, V domains shown)
VH: B1 VH
VL: B1 VL with L38P, S96G
With B6 the “KD ratio to GLS3000” value (CD3ε homodimer protein [1]) was 12.7.

B7: GLS3000 N28D (antibody, IgG1, name in Kabat numbering, V domains shown)
VH: B1 VH
VL: B1 VL with N33D, S96G
In the case of B7, the “KD ratio to GLS3000” value (CD3ε homodimer protein [1]) is reported as 4460.

B8: GLS3000 N30Y (antibody, IgG1, name in Kabat numbering, V domains shown)
VH: B1 VH
VL: B1 VL with N35Y, S96G
In the case of B8, the “KD ratio to GLS3000” value (CD3ε homodimer protein [1]) is reported as 1.01.

B9: GLS3000 P95E (antibody, IgG1, name in Kabat numbering, V domains shown)
VH: B1 VH
VL: B1 VL with S96G, P100E
For B9, the “KD ratio to GLS3000” value (CD3ε homodimer protein [1]) was 1.61.

B10: GLS3000 Q90Y (antibody, IgG1, name in Kabat numbering, V domains shown)
VH: B1 VH
VL: B1 VL with Q95Y, S96G
In the case of B10, the “KD ratio to GLS3000” value (CD3ε homodimer protein [1]) is reported as 36.3.

B11: GLS3000 R29V (antibody, IgG1, name in Kabat numbering, V domains shown)
VH: B1 VH
VL: B1 VL with R34V, S96G
For B11, the “KD ratio to GLS3000” value (CD3ε homodimer protein [1]) was 3.25.

B12: GLS3000 R45D (antibody, IgG1, name in Kabat numbering, V domains shown)
VH: B1 VH
VL: B1 VL with R50D, S96G
In the case of B12, the “KD ratio to GLS3000” value (CD3ε homodimer protein [1]) is reported as 0.86.

B13: GLS3000 R45E (antibody, IgG1, name in Kabat numbering, V domains shown)
VH: B1 VH
VL: B1 VL with R50E, S96G
In the case of B13, the “KD ratio to GLS3000” value (CD3ε homodimer protein [1]) is reported as 1.01.

B14: GLS3000 R45Q (antibody, IgG1, name in Kabat numbering, V domains shown)
VH: B1 VH
VL: B1 VL with R50Q, S96G
For B14, the “KD ratio to GLS3000” value (CD3ε homodimer protein [1]) was 0.98.

B15: GLS3000 S25E (antibody, IgG1, name in Kabat numbering, V domains shown)
VH: B1 VH
VL: B1 VL with S25E, S96G
In the case of B15, the “KD ratio to GLS3000” value (CD3ε homodimer protein [1]) is reported as 6.54.

B16: GLS3000 S27eE (antibody, IgG1, name in Kabat numbering, V domains shown)
VH: B1 VH
VL: B1 VL with S32E, S96G
With B16 the “KD ratio to GLS3000” value (CD3ε homodimer protein [1]) was 1.84.

B17: GLS3000 S27eL (antibody, IgG1, name in Kabat numbering, V domains shown)
VH: B1 VH
VL: B1 VL with S32L, S96G
In the case of B17, the “KD ratio to GLS3000” value (CD3ε homodimer protein [1]) is reported as 1.66.

B18: GLS3000 T92Y (antibody, IgG1, name in Kabat numbering, V domains shown)
VH: B1 VH
VL: B1 VL with S96G, T97Y
For B18, the “KD ratio to GLS3000” value (CD3ε homodimer protein [1]) was 2.53.

B19: GLS3000 V27cE (antibody, IgG1, name in Kabat numbering, V domains shown)
VH: B1 VH
VL: B1 VL with V30E, S96G
For B19, the “KD ratio to GLS3000” value (CD3ε homodimer protein [1]) was 1.3.

B20: GLS3000 Y96F (antibody, IgG1, name in Kabat numbering, V domains shown)
VH: B1 VH
VL: B1 VL with S96G, Y101F
In the case of B20, the “KD ratio to GLS3000” value (CD3ε homodimer protein [1]) is reported as 0.96.

B21: NNS6f63 (antibody)
heavy: QVQLVESGGGLVQPGRSLRLSCAASGFTFSNAWMHWVRQAPGKGLEWVAQIKDKSNNYATYYAESVKGRFTISRDDSKNSIYLQMNSLKTEDTAVYYCRYVHYAAGGGGWVYYGVDAWGQGTTVTVSSASTKGPSVFPLAPSSKSTSGGTAALGCLVKDYFPEPVTVSWNSGALTSGVHTFPAVLQSSGLYSLSSVVTVPSSSLGTQTYICNVNHKPSNTKVDKKVEPKSCDKTHTCPPCPAPEAAGGPSVFLFPPKPKDTLMISRTPEVTCVVVDVSHEDPEVKFNWYVDGVEVHNAKTKPREEQYASTYRVVSVLTVLHQDWLNGKEYKCKVSNKALPAPIEKTISKAKGQPREPQVYTLPPSRCELTKNQVSLSCAVKGFYPSDIAVEWESNGQPENNYKTTPPVLDSDGSFFLVSKLTVDKSRWQQGNVFSCSVMHEALHNHYTQKSLSLSPDYKDDDDK
chain: EPKSSDKTHTCPPCPAPELLGGPSVFLFPPKPKDTLMISRTPEVTCVVVDVSHEDPEVKFNWYVDGVEVHNAKTKPREEQYNSTYRVVSVLTVLHQDWLNGKEYKCKVSNKALPAPIEKTISKAKGQPREPQVCTLPPSRDELTKNQVSLWCLVKGFYPSDIAVEWESNGQPENNYKTTPPVLDSDGSFFLYSKLTVDKSRWQQGNVFSCSVMHEALHNRYTQKSLSLSP
light: DIVMTQSPLSLPVTPGEPASISCRSSQSLVHSNRNTYLHWYQQKPGQAPRLLIYKVSNRFSGVPDRFSGSGSGTDFTLKISRVEAEDVGVYYCGQGTQVPYTFGQGTKLEIKRTVAAPSVFIFPPSDEQLKSGTASVVCLLNNFYPREAKVQWKVDNALQSGNSQESVTEQDSKDSTYSLSSTLTLSKADYEKHKVYACEVTHQGLSSPVTKSFNRGEC
notes: one-arm antibody
B21 was tested, and the Kd (CD3ε homodimer protein [2]) was 69 nM.

B22: NNS6f17 (antibody)
heavy: B21 heavy with G106W, G108E, W110V
chain: B21 chain
light: B21 light
notes: one-arm antibody
In the case of B22, the Kd (CD3ε homodimer protein [2]) is reported as 74 nM.

B23: NNS6f27 (antibody)
heavy: B21 heavy with G106V, G107W, G109S, W110V, V111W
chain: B21 chain
light: B21 light
notes: one-arm antibody
In the case of B23, the Kd (CD3ε homodimer protein [2]) is reported as 38 nM.

B24: NNS6f29 (antibody)
heavy: B21 heavy with G106I, G107Y, G108Y, G109P, W110T, V111N
chain: B21 chain
light: B21 light
notes: one-arm antibody
B24 gave a Kd (CD3ε homodimer protein [2]) of 90 nM.

B25: NNS6f50 (antibody)
heavy: B21 heavy with G106L, G107T, W110L, V111G
chain: B21 chain
light: B21 light
notes: one-arm antibody
B25 gave a Kd (CD3ε homodimer protein [2]) of 71 nM.

B26: NNS6f52 (antibody)
heavy: B21 heavy with G106Y, G107M, G108L, W110L, V111G
chain: B21 chain
light: B21 light
notes: one-arm antibody
B26 was tested, and the Kd (CD3ε homodimer protein [2]) was 52 nM.

B27: NNS6f55 (antibody)
heavy: B21 heavy with G106A, G108R, G109W, W110L, V111A
chain: B21 chain
light: B21 light
notes: one-arm antibody
With B27 the Kd (CD3ε homodimer protein [2]) was 31 nM.

B28: NNS6f56 (antibody)
heavy: B21 heavy with G106R, G107E, G108A, G109T, W110R, V111W
chain: B21 chain
light: B21 light
notes: one-arm antibody
B28 showed a Kd (CD3ε homodimer protein [2]) of 21 nM.

B29: NNS6f58 (antibody)
heavy: B21 heavy with G106S, G107W, G108Q, G109V, W110S, V111R
chain: B21 chain
light: B21 light
notes: one-arm antibody
For B29, the Kd (CD3ε homodimer protein [2]) was 44 nM.

B30: NNS6f59 (antibody)
heavy: B21 heavy with G106L, G107L, G108V, G109Q, W110E, V111G
chain: B21 chain
light: B21 light
notes: one-arm antibody
B30 showed a Kd (CD3ε homodimer protein [2]) of 200 nM.

B31: NNS6f62 (antibody)
heavy: B21 heavy with G106N, G109T, W110R, V111H
chain: B21 chain
light: B21 light
notes: one-arm antibody
For B31, the Kd (CD3ε homodimer protein [2]) was 61 nM.

B32: NNS6f64 (antibody)
heavy: B21 heavy with G106L, G107V, G108S, G109L, W110T
chain: B21 chain
light: B21 light
notes: one-arm antibody
Work on B32 yielded a Kd (CD3ε homodimer protein [2]) of 78 nM.

B33: NNS6f67 (antibody)
heavy: B21 heavy with G107L, G108L, G109R, W110A, V111A
chain: B21 chain
light: B21 light
notes: one-arm antibody
B33 was tested, and the Kd (CD3ε homodimer protein [2]) was 36 nM.

B34: NNS6f68 (antibody)
heavy: B21 heavy with G106V, G107E, G108W, W110R, V111W
chain: B21 chain
light: B21 light
notes: one-arm antibody
B34 gave a Kd (CD3ε homodimer protein [2]) of 45 nM.

B35: NNS6f71 (antibody)
heavy: B21 heavy with G107W, G108V, G109L, W110G, V111S
chain: B21 chain
light: B21 light
notes: one-arm antibody
With B35 the Kd (CD3ε homodimer protein [2]) was 51 nM.

B36: NNS6f72 (antibody)
heavy: B21 heavy with G106E, G108I, G109W, V111G
chain: B21 chain
light: B21 light
notes: one-arm antibody
For B36, the Kd (CD3ε homodimer protein [2]) was 150 nM.

B37: NNS6f73 (antibody)
heavy: B21 heavy with G106W, G107V, G108V, W110V, V111R
chain: B21 chain
light: B21 light
notes: one-arm antibody
With B37 the Kd (CD3ε homodimer protein [2]) was 26 nM.
